assay: soluble on expression in E. coli; label from the status in PepcDB or PDB records

Soluble on expression in E. coli, not soluble:
MGSDKIHHHHHHMRKLKIGITCYPSVGGSGIIATELGKQLAEKGHEIHFITSSIPFRLNTYHPNIHFHEVEVNQYAVFKYPPYDLTLASKIAEVAERENLDIIHAHYALPHAVCAYLAKQMLKRNIGIVTTLHGTDITVLGYDPSLKDLIRFAIESSDRVTAVSSALAAETYDLIKPEKKIETIYNFIDERVYLKKNTAAIKEKHGILPDEKVVIHVSNFRKVKRVQDVIRVFRNIAGKTKAKLLLVGDGPEKSTACELIRKYGLEDQVLMLGNQDRVEDLYSISDLKLLLSEKESFGLVLLEAMACGVPCIGTNIGGIPEVIKNNVSGFLVDVGDVTAATARAMSILEDEQLSNRFTKAAIEMLENEFSSKKIVSQYEQIYADLAEPE, MGSDKIHHHHHHMRKLLNTLYVTSPNTYLSLDGENIVILKDDVEALRVPLHNLESIIAFGYTGASPALMGACAKRNISLSFMKSNGKFLGRVVGEVRGNVTLRKAQYRLSDDEATSHRIAKSFILGKVYNSRWVVERATRDHGARLDVEKLKGVCQTLANALRLVENSKDLDQLRGVEGEAAAQYFRVLDDLILQQKEDFYFKCRNKRPPLDNVNAMLSFIYTLLAHDAAAALETVGLDPYVGFLHRDRPGRISLALDLMEELRAVFADRFVLSLINRREVNPSGFTRMENGAVVMDDDTRRDILKAWQSRKQEEIKHPFLQEKMEWGLVPYAQAMLLARFIRGDLDGYPAFMWK, MGSDKIHHHHHHMRKRRVYWTLFITAFAWLASCSDDDINGSSGFNPNQPIEITEFYPDSGGIATPMIIEGRNFGTDTTGMKVYFEDVDGIRHPAGLVSSNGSRIYAFVPKGLTFKREMNILVERRTPDGQEYIGKAPDQFLYKTQTSVSTVAGLASPDNNINTVGGDLATCTFSSPFYLCIDGEDNIFVVDRKGDSGKDKQPNTTCRNEKGEGVNGNISMISIASNSSIVLKYGTAYINAPAYSDEKDAEAVYIPDDAGMKYYDMQKLLNYVPRYRTVLKSEELSTVDENNWKHCFVINKLDHMIYTVMWKGQLVRINPKNRTAEILLKKISNVATGDGGKAGSDSYIAFSPIKGEENVLYVSLADFHQIWRVDVSKITPEDKDTYNGESYAGKAIYEGVMNGKGWEDGLLKNAKFRHPRQICFTDDGKMYIADSGNSCIRVIDTTMPKERAAVTTPIGLPGAEGYKDGGPEIAKFHFPCGVAVNSDGTIVYVADTQNKVIRKLSIE, MGSDKIHHHHHHMRLGFYNIQGGTGKTTIAANIGYYLSDKTKTVYVDCDIYAGCGALLFGFEDSPHTLNSYLSGASALTDIIHQFDDLSVIVADSTPNSFNTEINQKRMLELIRVLNDNYDIVLLDLPPNITEGNLLFSSLNLEEKVVNKMIVVAEDSIPGIANTMKTKELLYAIDIDCIGVIVNKFKDTVDFDEALDDIIAILPYDKKVENQWMENVPAVQMKSKFSKELSYLAEDLAEVYIKKDLAAVRALKVAKELKDMTSKRQDVEEDEF, MGSDKIHHHHHHMRLPPIDLSRENTFGEISYESGGQYGPIRGDYLAFIIVHLGTLKIEADETVLQLEAGHCALSLTRDSYLTTIAPETLTHISWCDGRPLNAAWLYKERHKYAPFINASTQVQTLMQLGVDLGIGDRDGRGGLREALTNTLLNAYIYEAEVVAEERPIPQTILQARRFLDENFAADVSIERVAQQVRVSPQYLVSAFKKHLGMTPARYLWRCRLDYGAHLLQRSGLSVSEIAYQVGYKNPYHFSRQIKLAFDCSPTELREKMLNG, MGSDKIHHHHHHMRLRHIEIFHAIYTTGSITNAAKILHVSQPSVSKVLSHAEMQLGFDLFERVKGRLTPTDEAEMLFDEVDKIYQQMRSIKNTAENIKKSEYGQINIAGSPALGFDVIPSAIAKYHHKHHQVNFNVQTVHNDAVMQTLLEHKCDLAILFAPNVMPGVTSIELAQSELVIVYPKVSFPDCPKELTLNQLKEFEYIDIGDSGPLADLLWTRMMKDNISLEALIKVQTYFIAARLVAQGVGICVVDRFTAEGNLSDNTAIASFNPPLTFPVKALYLENKSLSKVSQEFLSYLTTEFSDDSK, MGSDKIHHHHHHMRNELPPENAYRILESGPIVLVSTRGADGRANLMTMGFHMMMQHEPPLVGAIIGPWDYSHQALSETGECVLAVPTVDLAETVVDIGNCSGDALDKFGHFGLTPVPAQTVDAPLVRQCWANLECRVVDDGWARRYNLWVLEVQRIWIDTARKETRLIHHQGDGRFSVDGDTLDLGERMTKWRHLMG, MGSDKIHHHHHHMRNITVPSNYFHTRERLGALGGIVQHHTALYRSVAVYEPTVVIVRRGCKKLRWAGRELRIAAGEAVGLAGGQTLDVINIPDSDGLYQAQWIAFEQETVERFAAQYGTAQAVCDAVKLPHPGRMGAAFDYAAAVLADEEVPHNAAEAALCGVLAWLQHDGIGFAVYGGVNLMRQIRKLITADMAADWSSAMLAQRLNCSEAALRRRLARQDTNFRTLLTDVRMMRALTLLQVTQWSVAQIAGAVGYDCPSRFSARFKELFGCVPSVVRSEAEPAAYRRTGQVSVGVRP, MGSDKIHHHHHHMRNLNEKMKDIFERSVEDIKERNQNLLRPEHILLQILYDENEATKVLKDLNVNVEEVITELEDYIDSQYGIYYGFSDQVYVSKELSYILELARKEARLFKQKDIGPLHFLLGLLRDGSTHAARVLKKYGVDYEKVLQTVKEHEEEYAAEQSPLTAFATDLTKLAKEGKVGPIIGRDREIERVIEILMRKTKNNPILIGDPGVGKTAIVEGLAQRIVEGKVPDPLKDVRILMVDLGRMIAGTKYRGEFEERLKSFLDEVMKQKEKTILFIDEIHTLVGAGAAEGAMDAANMLKPALARGEIRVIGATHWMSTENT, MGSDKIHHHHHHMRNQSKMPLVERLDAHAKSCPISLHVPGHKSGAIYPDAWQKFLKWDVTEITGMDDLHHPEDVILEAEELLAECYGSKKSYFLVNGTSGGSLAVIMATLKHGEKVLVPRDAHKSILHGIELAGGEPIFLTPATNKEVGVASGVTTELLEETLHNHPDIKLCIFTYPSYYGTTFNLHKCIQIAHDFGAVVFVDEAHGAHFLTSSEFPKSAVELGADVVVQSAHKTLPALTMGSYLHVVNDLPIFEKLPYYLQVFQTSSPSYLIMASLDAARKYAATYTAADVEAFWKMRARWIKWLTKNKFDVILPDDPLKIIVRKTGYTGYELQAIFEESSYFPELADESQVLLILPLIKKGIDFTPISRIHSPVKKEIAKEPYEMSAPFASGLALTYEEMHARATEFVLLDEATTRVSAETISLYPPGIPAIIRGESITEKHIRELKNIRTRHYQGGEKLAENYIRVFR, MGSDKIHHHHHHMRRADRLFQIVQILRHRRLTTAKQLAERLEVSSRTIYRDIQDLCLSGIPIEGEAGVGYLLRQEVNVPPLMFNEQELEAIQVGMRMVQAQGGHELASAAKQAMIKVEAVLPERLKAYQSLMFAPDFYSEGQLFSFLDLLRRTSREREYILLSYQDGKQSSSERQVRPLALYYWQGVWTLLAWCELRGDFRNFRVDRIVGVLPLGSHFQHTPGQEMPDYIAMMQAQYGEC, MGSDKIHHHHHHMRRIKIFDTTLRDGEQSPGASMSIEEKVEMALMLEDLGVDLIEAGFPVSSPVQFEAVKRVASAVQKPIVVGLARCVEKDIDAAYEALKDRPKDKRMIHVFIATSPIHRKYKLRMEKEEILERIRRYVGYAKQFFDLVEFSAEDASRTEVPFLIEAYKTAIEAGATTINVPDTVGYALPDEFGELIKTLREGVPGIENVDLSVHCHNDLGLAVANSLAAVQNGATQVEVTLNGIGERAGNCALEEFVMILKVRKDKLPYETGIKTELIYPASRLLTHITGLIPSRNKPIVGENVFLHESGIHQDGVLKHRETYEIMKPSDIGRSSETLVLGRHSGKHALRKKLETYGIKLDEETFQKVFEKFTELADRKKEVYDDDLFSIVSEVLREPINGYKLVHFHVHTGNTLLPTAAVVLQVGNEKREAAEAGNGPVDAIFKAIDKALGIQPKLEEYIIQAVGTGKNAQGEVKLTLRIDNELYSGRGVSTDIVEASAIAYINAINKYLIAKGLLRKNGGAE, MGSDKIHHHHHHMRRSKLTPTTPPMFKNLSVYRIQGDWHPAIAEAEASLQKFRFAECGATQAISAGWVEPRGEKHGPLVEAVGDQWMLTLCIQTKLLPAGVIKQHVDARIEQIKQREARRPGKKEVREIKEAVILELLPKAFSKKEHISVWIDRKNKLVAIDTASQSKCDTATSALVKTLDGLAIGLIQTQMSPGTCMSQWLMDGEAPDGFGVERECELKSSDESRSAVKYSRHVLDIDEVKQHLTHGKTPTQLAMTWTDRVSFTLTDAMALKKVTFLETPLMKKKAGGDDPFDANAAIVTGELSQLIPQLIEALGGELEFTGESGEGAREAKSEEREQETAEA, MGSDKIHHHHHHMRTLKVLHLASFDGNIGDNANHNGVRFLWKKYLPEYDFAITPLEMREYFWKWKSFDDGFADMVNEYDLFVCGGGNYFELWVQSSPTGTSVAIPLEVLRKIKTPCLFYALGLDPYMGAPDICIERFKRFLDYTLASPQFLVSVRNDGSLDSARRVLGGEYADRIHLMPDGGHFVQPEACTHYELTPGARTIGVNLAGDMLDFRFKSCNGKNLNDFKRSTAAVLCDIMRRMPDVNLIFYPHIHKDYSFLADFICGIDDHLLRRRITVAPYLHGQGAERKFFDLYRQCALNIGTRLHANICSVGLKTPSIGIVTHEQIHELYGYYGMAERALRFSDDNYAAKLDDLISDSLENTERISCRYSDVMSMVTKDAERFLGIMNCWLDSVV, MGSDKIHHHHHHMRTLTISDEIVPAVYSLNIKQRFADVQLVLACGDLPIYYLEFVVTMLGQPCFYVWGNHDAPEVQADGQVVSYARGATCIEDHVVCHQGLLIGGLGGSIRYKPDGHHQYTETQMMLRVLRMAPRLFLNRLRYGRYLDVLLTHAPPLGIHNGPDYPHRGFLALLRFIQWFRPRYLIHGHIHLSYGFGHATETLYGQTLVINTAGYRVLDLAI, MGSDKIHHHHHHMRVASPETFASQSYRLLPFRFERVNDDRFLLINEVGEHCYLNCADLNNLVNGYLTTSGKTFQNLESKSFVYSENNNFALRAFSAKYRARKSFLFDGPALHIFVLTLRCENSCEYCQVTRRSPDAVKYDMPLSIAKQAVLRMFESPAENLTVEFQGGEPLLAYDVLKYIVELCIELNITEQKSLQFVVATSLQNINMEMLEFFHLHNVHISTSVDGPQWLHQLNRPNSCSNSYEKTMHGLEMARGVLGHDRIAGMTTITRSSLTAIKTIIDEYVRLGFHSIFLRPLNMYGFAVKKENKVGYSSEDFNKFYEQALKYIIEINQQGYRLDEVNAALALNNILTPQATGYVDMRSPCGDGTGVLVYNYDGKVYPSDESRMLVEMGDESLALGSVSESYQDLMSSSVLNTILHAGIAEALPGCSDCAYLPYCGANPIQNYSRYGDMIGHRTFSAFCAKQKFLYRYVFNLLQDKSNRTVFNSWLPL, MGSDKIHHHHHHMRVIKVKTISETLDYISKHTASVARFGDGEIDIIAGNSIPYQVYASALAARLERLLNRQSNEKLVICVSDVFDNLGRYNDFSQQFWRDHLYQYNDLYQKNCQAEWYGSTFISRPYMDLLDKSLSVTYFEQLKALWKNKDILIVEGETSRSGVGNDLFNDANTISRIICPSKDAFSSFYEIKETILEHSRGKLILLMLGPTAKLLAEDLSQLGHQAIDLGHIDSEYEWFKMGAVSKVKLSHKHTAEHNFDEDITLIEDNSYENQIVSKIGTSDRQYALTVTLTDDIWELEHLLQRCPNTDFHIAAPVYCSDRLKQLVGYPNYYLHEAITEEQFEVLLLNSDIYLDINHGEEVWNVVDRCITEGKTIYGIRRARKDNQYISFERTMDDFEYLCDTIKQNR, MGSDKIHHHHHHMSAALSCGTIHGVGLGPGAPDLLSVRSDRLVRGARHVAYFRKAGRPGQARRIVEGMLRPDVIEIPMEYPVTTEIPLSDPRYNDCLSAFYAECTQRLVMLAQAGEDVVVLCEGDPFFYGSFMHLHTRLAGTVPVAVVPGITGMAGAWNATGIPITWGDDVLTIAMATLPEDELVRRIRDTDALVVMKIGRNLPKLRRAVAAAGREDAAWLVEHAAMPGQRVTRLIEAETVTPYFSILLIHGQGRRP
